# Columns and labels:
# [1] = biological target: T1, epidermal growth factor receptor (EGFR) (human, UniProt P00533 25-1210); test: flow cytometry, equilibrium binding on EGFR-expressing A431 cells (apparent KD)
# T1 construct: whole, on cells; Endogenous EGFR on human tumor cell lines; also called target antigen
# Protocol: Detection of bound antibody or immunoRNase was performed using murine anti-c-myc monoclonal antibody clone 9E10 (Roche, Penzberg, Germany) and goat-anti-mouse fluorescein isothiocyanate (FITC) conjugate (Jackson ImmunoResearch, Suffolk, UK). Fluorescence of stained cells was measured on a FACS Canto II flow cytometer (Becton Dickinson) using the FACS Diva Software (Becton Dickinson). Background fluorescence was substracted from measured median fluorescence and relative affinities were calculated by nonlinear regression using GraphPad Prism 5.0 (GraphPad Software, La Jolla, Calif., USA).
# [2] = biological target: T1, epidermal growth factor receptor (EGFR); test: cell-based or functional assay
Binder,Kd [1] [nM],"IC50 (nM), cell viability, A431 [2] [nM]","IC50 (nM), cell viability, HNO97 [2] [nM]","IC50 (nM), cell viability, HNO211 [2] [nM]","IC50 (nM), cell viability, HNO410 [2] [nM]"
"humanized anti-epidermal growth factor receptor (EGFR) scFv IZI08 (scFv, Expressed in E. coli periplasm, monomer purified by SEC; also called anti-EGFR scFv; anti-EGFR scFv IZI08; not shown: C-terminal c-myc tag; C-terminal hexahistidine tag) scFv: EVQLVESGGGLVQPGGSLRLSCAASGFSLTNYGVHWVRQAPGKGLEWLGVIWSGGNTDYNTPFTSRFTISRDNSKNTLYLQMNSLRAEDTAVYYCARALTYYDYEFAYWGQGTTVTVSSGGGGSGGGGSGGGGSDIQLTQSPSFLSASVGDRVTITCRASQSIGTNIHWYQQKPGKAPKLLIKYASESISGVPSRFSGSGSGTEFTLTISSLQPEDFATYYCQQNNNWPTTFGAGTKLEIKR",9.6,> 3620,> 3620,> 3620,> 3620
"Ranpirnase-GS-scFv (other, Q* at position 1 of SEQ ID NO:4 stands for a pyroglutamate (as printed for Ranpirnase), also called Ranpimase-GS-scFv; immunoRNase Ranpirnase-GS-scFv; not shown: C-terminal c-myc tag; C-terminal hexahistidine tag) QDWLTFQKKHITNTRDVDCDNIMSTNLFHCKDKNTFIYSRPEPVKAICKGIIASKNVLTTSEFYLSDCNVTSRPCKYKLKKSTNKFCVTCENQAPVHFVGVGSCGGGGSGGGGSGGGGSEVQLVESGGGLVQPGGSLRLSCAASGFSLTNYGVHWVRQAPGKGLEWLGVIWSGGNTDYNTPFTSRFTISRDNSKNTLYLQMNSLRAEDTAVYYCARALTYYDYEFAYWGQGTTVTVSSGGGGSGGGGSGGGGSDIQLTQSPSFLSASVGDRVTITCRASQSIGTNIHWYQQKPGKAPKLLIKYASESISGVPSRFSGSGSGTEFTLTISSLQPEDFATYYCQQNNNWPTTFGAGTKLEIKR",14.7,> 3620,1260,1420,2520
